Assay results reported in patent US20260152567A1 (CSPC MEGALITH BIOPHARMACEUTICAL, published 2026).
Changes are numbered by the printed parent chain.

T1: recombinant human CD73 protein (human, UniProt P21589 27-547)
T1 construct: Bought soluble protein; The background says that CD73 forms a homodimer; also called soluble CD73; free CD73 protein
T1 sequence (looked up): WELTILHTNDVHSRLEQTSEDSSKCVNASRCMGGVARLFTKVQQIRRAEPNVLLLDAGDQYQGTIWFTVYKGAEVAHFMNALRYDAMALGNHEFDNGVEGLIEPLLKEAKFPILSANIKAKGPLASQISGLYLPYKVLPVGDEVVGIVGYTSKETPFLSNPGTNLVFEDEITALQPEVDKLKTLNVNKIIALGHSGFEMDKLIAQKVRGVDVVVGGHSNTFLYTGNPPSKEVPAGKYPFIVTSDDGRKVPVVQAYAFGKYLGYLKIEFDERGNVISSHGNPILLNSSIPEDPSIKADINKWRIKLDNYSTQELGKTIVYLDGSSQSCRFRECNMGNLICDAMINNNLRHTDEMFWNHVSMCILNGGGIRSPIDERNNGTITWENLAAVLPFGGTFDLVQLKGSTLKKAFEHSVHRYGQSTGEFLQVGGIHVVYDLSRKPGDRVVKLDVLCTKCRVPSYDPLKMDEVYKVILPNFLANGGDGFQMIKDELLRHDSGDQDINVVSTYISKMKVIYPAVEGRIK

T2: cynomolgus monkey CD73 protein (cynomolgus monkey, UniProt A0A2K5V5U7 27-547)
T2 construct: construct not described
T2 sequence: T1 sequence (looked up) with M199T, T350A, V466I

T3: human CD73 on the cell surface (MDA-MB-231 and SKOV3 tumor cells) (human, UniProt P21589 27-549)
T3 construct: whole, on cells; also called cell surface CD73; CD73 on the surface of human tumor cells
T3 sequence (looked up): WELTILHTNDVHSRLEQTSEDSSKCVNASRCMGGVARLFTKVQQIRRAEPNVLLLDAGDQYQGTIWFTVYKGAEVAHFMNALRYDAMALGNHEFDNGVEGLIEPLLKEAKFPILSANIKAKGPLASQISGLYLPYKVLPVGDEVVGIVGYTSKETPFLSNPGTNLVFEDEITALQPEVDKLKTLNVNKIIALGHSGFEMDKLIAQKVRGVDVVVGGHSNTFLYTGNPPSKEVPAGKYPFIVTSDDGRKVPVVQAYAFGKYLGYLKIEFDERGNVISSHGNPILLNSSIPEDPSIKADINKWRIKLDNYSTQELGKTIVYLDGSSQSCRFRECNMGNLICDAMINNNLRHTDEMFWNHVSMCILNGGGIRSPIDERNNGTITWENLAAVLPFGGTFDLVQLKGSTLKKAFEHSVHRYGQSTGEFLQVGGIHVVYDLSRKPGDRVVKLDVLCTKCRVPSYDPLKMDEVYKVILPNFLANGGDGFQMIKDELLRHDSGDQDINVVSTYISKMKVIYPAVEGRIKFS

B1: Hab7C3C2.9 (antibody, human IgG1, kappa, L234A L235A, V domains shown)
VH: QVQLVQSGAEVKKPGASVKVSCKASGYTFTSYDINWVRQATGQGLEWMGWIYPRDGFTKYAQKFQGRVTITVNTSISTAYMELSSLRSEDTAVYYCARKEGYRGDWYFDVWGQGTTVTVSS
VL: DIQMTQSPSSLSASVGDRVTITCRASGNVHNYLAWYQQKPGKAPKLLLYNAKTLASGVPSRFSGSGSGTDYTLTISSLQPEDFATYYCQHFWSTPWTFGGGTELEIKR
notes: Humanized 7C3C2; also called Huab7C3C.9
B2: Hab1F2F9.12 (antibody, human IgG1, kappa, L234A L235A, V domains shown)
VH: QVQLVQSGAEVKKPGASVKVSCKASGYTFTSYWMHWVRQAPGQRLEWMGNINPSNGGTKYNEKFQGRVTITVDTSASTAYMELSSLRSEDTAVYYCARRDYGSPSYWGQGTTVTVSS
VL: DIQMTQSPSSLSASVGDRVTITCKASQDINSYLTWFQQKPGKAPKSLIYRTNILLDGVPSRFSGSGSGTDYTLTISSLQPEDFATYYCLQYHEFPVTFGGGTKLEIKR
notes: Humanized 1F2F9; also called Huab1F2F9.12
B3: 7C3C2-hIgG1 (antibody, V domains shown)
VH: QVQLQQSGPELVKPGASVKLSCKASGYTFTSYDINWVKQRPGQGLEWIGWIYPRDGFTKYNEKFKGKATLTVDTSSSTAYMELHSLTSEDSAVYFCARKEGYRGDWYFDVWGTGTTVTVSS
VL: DIQMTQSPASLSASVGETVTITCRASGNVHNYLAWYQQKQGKSPQLLVYNAKTLADGVPSRFSGSGSGTQYSLKINSLQPEDFGSYYCQHFWSTPWTFGGGTELEIKR
notes: Human-mouse chimeric antibody, expressed in HEK293, Protein A purified; also called 7C3C2 chimeric antibody
B4: 1F2F9-hIgG1 (antibody, V domains shown)
VH: QVQLQQPGTELVKPGASVKLSCKASGYTFTSYWMHWVKQRPGHGLEWIGNINPSNGGTKYNEKFKSKATLTVDKSSSTAYLQLSSLTSEDSAVYYCARRDYGSPSYWGQGTLVTVSA
VL: DIKMTQSPSSIYASLGERVTITCKASQDINSYLTWFQQKVGKSPKTLIYRTNILLDGVPSRFSGSGSGQDYSLTISSLDYEDMGIYHCLQYHEFPVTFGAGTKLELKR
notes: Human-mouse chimeric antibody, expressed in HEK293, Protein A purified; also called 1F2F9 chimeric antibody
B5: MEDI9447 (antibody, V domains shown)
VH: EVQLLESGGGLVQPGGSLRLSCAASGFTFSSYAYSWVRQAPGKGLEWVSAISGSGGRTYYADSVKGRFTISRDNSKNTLYLQMNSLRAEDTAVYYCARLGYGRVDEWGRGTLVTVSS
VL: QSVLTQPPSASGTPGQRVTISCSGSLSNIGRNPVNWYQQLPGTAPKLLIYLDNLRLSGVPDRFSGSKSGTSASLAISGLQSEDEADYYCATWDDSHPGWTFGGGTKLTVLG

How the values were obtained:
[1] = molecular target: T1, recombinant human CD73 protein; experiment: BLI (Fortebio), human CD73 on HIS1K biosensors, antibody as analyte
Method: The humanized antibody VH and VL were separately constructed into eukaryotic expression vectors containing the hIgG1-kappa constant region with L234A, L235A, P329A and P331S mutations (abbreviated as hIgG1 in the present application). The affinity of all humanized antibodies was assayed in this example. Human CD73 protein was immobilized onto HIS1K biosensors to achieve a binding response threshold of 0.3 nm. After a 120-second baseline step, the sensors were separately immersed in anti-CD73 antibody analytes diluted in a gradient with a 0.02% PBST buffer (each antibody was diluted in a 2-fold gradient with an initial concentration of 25 nM, resulting in 7 concentration gradients). The times for the ligand-analyte binding and dissociation were 120 s and 300 s, respectively. The data of the antigen-antibody affinity were calculated by regression according to the binding curves using an analysis software.

[2] = molecular target: T2, cynomolgus monkey CD73 protein; experiment: BLI (Fortebio), cynomolgus CD73 on HIS1K biosensors, antibody as analyte
Method: In this example, the cross-binding ability of the exemplary humanized anti-CD73 antibodies of the present application to cynomolgus monkey CD73 was assayed by a Fortebio experiment. The specific implementation steps included immobilizing the cynomolgus monkey CD73 protein onto HIS1K biosensors. […] The times for the ligand-analyte binding and dissociation were 120 s and 300 s, respectively. The data of the antigen-antibody affinity were calculated by regression according to the binding curves using an analysis software.

[3] = molecular target: T1, recombinant human CD73 protein; experiment: ELISA, plate coated with recombinant human CD73 at 1 µg/mL
Method: The obtained eukaryotic expression vectors were transiently transferred into HEK293 cells, and the cells were then cultured for 6 days. The culture supernatants were harvested and purified by a ProteinA column to obtain the target antibodies, which were named 7C3C2-hIgG1 and 1F2F9-hIgG1, respectively. The affinity of the antibodies for the recombinant human CD73 protein (as described in Example 1) was determined using ELISA method. A elisa plate was coated with the recombinant human CD73 protein at a concentration of 1 μg/mL and washed 3 times with a PBST buffer. Then, the plate was blocked with a PBS buffer containing 2% BSA at 37° C. for 2 h and washed 3 times with a PBST buffer. 5-fold gradient dilutions (0-133.3 nM) of the test antibodies were added, and the mixture was incubated at 37° C. for 2 h. The plate was further washed 3 times with a PBST buffer. A horseradish peroxidase-labeled secondary antibody was added, and the mixture was incubated at 37° C. for 1 h. The plate was then washed 3 times with a PBST buffer. Chromogenic reaction was performed, and the absorbance values were read after the reaction was terminated.

[4] = molecular target: T3, human CD73 on the cell surface …; experiment: flow cytometry on SK-OV-3 cells
Method: (§1) In this example, the exemplary antibodies of the present application were compared with anti-CD73 antibodies described in other patent applications. Antibodies MEDI9447 and Hu101-28 (with CDR sequences from PCT patent applications WO 2016/075099 and WO 2018/137598, respectively) were cloned into eukaryotic expression vectors containing the hIgG1-kappa constant region. The binding ability of the humanized antibodies Hab7C3C2.5 and Hab1F2F9.15 to cell surface CD73 was assessed using tumor cell lines MDA-MB-231 and SKOV3 which endogenously express human CD73 on the cell surface. The cells were seeded in a 96-well plate at a density of 2×10⁶ cells/mL, with 100 μL per well. 4-fold gradient dilutions (0-100 nM) of the antibodies were added, and the mixture was incubated at 4° C. for 1 h. A goat anti-human secondary antibody was added, and the mixture was incubated at 4° C. in the dark for 50 min for labeling. The fluorescence intensity of the cells was then measured by a flow cytometer.

[5] = molecular target: T3, human CD73 on the cell surface …; experiment: flow cytometry on MDA-MB-231 cells
Method: as §1

| Binder | Kd [1] [nM] | koff [1] [s⁻¹] | kon [1] [M⁻¹ s⁻¹] | Kd [2] [nM] | koff [2] [s⁻¹] | kon [2] [M⁻¹ s⁻¹] | EC50 [3] [nM] | EC50 [4] [nM] | EC50 [5] [nM] |
| --- | --- | --- | --- | --- | --- | --- | --- | --- | --- |
| B1 | 1.03 | 0.00381 | 3.7e+06 | 0.852 | 0.00388 | 4.56e+06 |  |  |  |
| B2 | 0.72 | 0.00133 | 1.85e+06 | 0.681 | 0.00152 | 2.22e+06 |  |  |  |
| B3 |  |  |  |  |  |  | 0.017 |  |  |
| B4 |  |  |  |  |  |  | 0.028 |  |  |
| B5 |  |  |  |  |  |  |  | 0.17 | 0.49 |
